# Test results as given in patent publication US20250206841A1 (ADEPT THERAPEUTICS, published 2025).
# Positions count from the first letter of the chain named.
# T1: human Trop-2 expressed on cell surface (human, UniProt P09758 27-323)
# T1 sequence (looked up): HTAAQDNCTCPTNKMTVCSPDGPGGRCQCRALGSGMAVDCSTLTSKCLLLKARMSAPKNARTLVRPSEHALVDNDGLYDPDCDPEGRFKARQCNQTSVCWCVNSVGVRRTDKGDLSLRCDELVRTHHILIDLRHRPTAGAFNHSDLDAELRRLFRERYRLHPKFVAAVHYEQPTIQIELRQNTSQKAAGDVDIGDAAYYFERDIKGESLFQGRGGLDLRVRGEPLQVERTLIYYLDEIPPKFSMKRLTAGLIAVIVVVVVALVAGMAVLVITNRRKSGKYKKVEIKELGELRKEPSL
# T2: human Trop-2-His protein (human, UniProt P09758 27-274)
# T2 construct: extracellular domain; Assay paragraphs say only 'Trop-2-His'; also called hTrop-2; Kactus Cat #TRP-HM121; not shown: His tag
# T2 sequence (looked up): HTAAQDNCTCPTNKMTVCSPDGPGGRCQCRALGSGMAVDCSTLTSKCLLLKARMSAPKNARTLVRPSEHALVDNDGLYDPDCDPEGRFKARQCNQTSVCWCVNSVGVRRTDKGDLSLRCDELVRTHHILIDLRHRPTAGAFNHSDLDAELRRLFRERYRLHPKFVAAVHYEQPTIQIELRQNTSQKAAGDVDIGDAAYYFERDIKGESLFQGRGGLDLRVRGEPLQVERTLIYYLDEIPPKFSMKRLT
# T3: cynomolgus Trop-2-His protein (cynomolgus, UniProt P09758 27-274 (human entry))
# T3 construct: also called cynmolgus Trop-His; Kactus Cat #TRP-CM121; not shown: His tag
# T3 chain: T2 sequence (looked up) with M36V, S67N, G139S, I204V
# B1: 5D4 (antibody, V domains shown)
# VH: QQLEESGGGLVKPEGSLTLTCKGSGFDFSGTYWMWWVRQAPGKGLEWIACIYVGSGSSTYYASWAKGRFTISSTSSTAVTLQATSLTAADTATYFCARGATNNVFMNYFNLWGPGTLVTVSS
# VL: FEMTQTPSSVSEPVGGTVTIKCQASEDISSNLGWYQQKPGQPPKLLIYGASTLASGVPSRFKGSGSGTEFTLTISDLECADAATYYCQTSYYIDDGVNGFGGGTEVVVK
# notes: Rabbit-derived clone; LEM construct: VH + rabbit IgG CH1 + human IgG1 CH2-CH3
# B2: 5D4-1 (antibody, V domains shown)
# VH: B1 VH with C50P
# VL: B1 VL with C79P
# B3: 5D4-2 (antibody, V domains shown)
# VH: B1 VH with C50S
# VL: B1 VL with C79A
# Molecular target: T1, human Trop-2 expressed on cell surface
# Experiment: cell-based or functional assay
"EC50 of ADCC (NFAT-CD16 reporter), MCF-7 [nM]","EC50 of ADCC (NFAT-CD16 reporter), MDA-MB-231 [nM]",Binder
0.57,0.07,B1
0.61,0.11,B2
0.52,0.08,B3

# Molecular target: T1, human Trop-2 expressed on cell surface
# Experiment: cell-based or functional assay
# Remark: another data set of the same source
"Internalization %, MDA-MB-231, 0.25 µg/ml, 2 h [%]","Internalization %, MDA-MB-231, 0.25 µg/ml, 4 h [%]","Internalization %, MDA-MB-231, 0.5 µg/ml, 2 h [%]","Internalization %, MDA-MB-231, 0.5 µg/ml, 4 h [%]","Internalization %, MDA-MB-231, 1 µg/ml, 2 h [%]","Internalization %, MDA-MB-231, 1 µg/ml, 4 h [%]","Internalization %, MDA-MB-231, 2 µg/ml, 2 h [%]","Internalization %, MDA-MB-231, 2 µg/ml, 4 h [%]",Binder
56,65,49,66,65,51,60,66,B1
58,66,56,61,59,64,57,63,B2
55,61,48,57,52,58,57,62,B3

# Molecular target: T1, human Trop-2 expressed on cell surface
# Experiment: cell-based or functional assay
# Remark: another data set of the same source
"Internalization %, MCF-7, 0.25 µg/ml, 1 h [%]","Internalization %, MCF-7, 0.25 µg/ml, 2 h [%]","Internalization %, MCF-7, 0.25 µg/ml, 4 h [%]","Internalization %, MCF-7, 0.5 µg/ml, 1 h [%]","Internalization %, MCF-7, 0.5 µg/ml, 2 h [%]","Internalization %, MCF-7, 0.5 µg/ml, 4 h [%]",Binder
44,52,64,62,59,74,B1
59,57,62,42,56,73,B2
51,67,58,23,43,61,B3

# Molecular target: T1, human Trop-2 expressed on cell surface
# Experiment: flow cytometry, MCF-7 cells
# Procedure, shortened: (§1)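 Cells at 10⁶/ml in DPBS/1% FBS were incubated on ice for 1 h with antibodies in 1:3 serial dilutions from 15 μg/mL. Detection used PE anti-human Fc (1:400, 30 min on ice) with 7-AAD viability staining, read by flow cytometry. EC₅₀ from binding curves; anti-HEL hIgG1 isotype control.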
row,EC50 [nM],Binder
1,1.2,B1
2,1,B2
3,0.8,B3

# Molecular target: T2, human Trop-2-His protein
# Experiment: ELISA, coated Trop-2 protein
# Procedure, shortened: (§2)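 Purified antibodies were checked for binding to human or cynomolgus Trop-2-His protein by ELISA. Maxisorp plates were coated overnight at 4° C with 0.5 μg/ml protein, blocked with PBST/3% BSA, and incubated with serially diluted antibodies. Binding was detected with HRP-conjugated anti-hIgG and TMB, read at 450 nm, and EC₅₀ values were calculated in Graphpad Prism.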
row,EC50 [nM],Binder
1,0.016,B1
2,0.018,B2
3,0.015,B3

# Molecular target: T3, cynomolgus Trop-2-His protein
# Experiment: ELISA, coated Trop-2 protein
# Procedure, shortened: as §2
row,EC50 [nM],Binder
1,0.014,B1
2,0.023,B2
3,0.018,B3

# Molecular target: T1, human Trop-2 expressed on cell surface
# Experiment: flow cytometry, MDA-MB-231-GFP cells
# Procedure, shortened: as §1
row,EC50 [nM],Binder
1,0.01,B1
2,0.01,B2
3,0.04,B3

# Molecular target: T2, human Trop-2-His protein
# Experiment: BLI (Gator Plus), purified Ab on HFC probe
# Procedure: The affinity of the binding of the exemplary anti-Trop-2 antibodies of the present disclosure were determined. Assay was performed using Gator Plus according to the protocol recommended by Gator Bio Inc.. Briefly, human Trop-2-His (Kactus) was 1:4 fold serially diluted starting at 1 μg/ml. After three times of regeneration and neutralization of HFC probe, 1 μg/ml of antibody to be tested in Q buffer was immobilized onto HFC probe. […] The association and dissociation of human Trop-2-His antigen from antibody was measured on BLI machine Gator Plus. Affinity was calculated using Gator Bio analysis software. Blank control was used for reference subtraction. Sacituzumab govitecan was used as positive control.
Kd [nM],koff [s⁻¹],kon [M⁻¹ s⁻¹],Binder
0.03,1.3e-05,522000,B1
0.1,5.1e-05,489000,B2
0.12,6e-05,487000,B3
